From patent publication US20240301076A1 (CEPHALON, published 2024)
Numbering of substitutions follows the chain as printed. In names and notes the source's numbering stands.

T1: human CXCR2 (human, UniProt P25025 1-360)
T1 construct: also called CXC chemokine receptor 2; hCXCR2
T1 sequence: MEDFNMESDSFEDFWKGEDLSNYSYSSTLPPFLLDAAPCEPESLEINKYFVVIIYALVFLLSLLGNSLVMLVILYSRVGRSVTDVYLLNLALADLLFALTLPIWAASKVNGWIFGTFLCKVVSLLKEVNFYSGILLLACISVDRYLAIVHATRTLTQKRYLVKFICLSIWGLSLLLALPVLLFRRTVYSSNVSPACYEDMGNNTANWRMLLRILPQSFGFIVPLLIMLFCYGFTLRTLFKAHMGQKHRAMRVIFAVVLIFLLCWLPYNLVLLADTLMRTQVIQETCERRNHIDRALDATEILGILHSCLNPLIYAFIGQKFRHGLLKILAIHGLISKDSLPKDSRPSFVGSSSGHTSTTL

B1: BKO-4A8 variant VL N95aY (antibody, human IgG4 S228P, lambda, V domains shown)
VH: EVQLLESGGGLVQPGGSLRLSCAASGFTFSSSTMSWVRQAPGKGLEWVSAISGRGRNTYYADSVKGRFTISRDNSRNTLYLQMNSLRAEDTAVYYCAIQMGYWGQGILVTVSS
VL: QSALTQPPSASGSPGQSVTISCIGTSSDVGGYNYVSWYQQHPDKAPKLMIYEVNKRPSGVPDRFSGSKSGNTASLTVSGLQAEDEADYYCSSYAGNNYFGVFGGGTKLTVLG
notes: IgG4 S228P, lambda; parental heavy chain; also called 4A8 VL N95aY
B2: BKO-4A8 variant VL N95aD (antibody, human IgG4 S228P, lambda, V domains shown)
VH: B1 VH
VL: B1 VL with Y98D
notes: IgG4 S228P, lambda; parental heavy chain; also called 4A8 VL N95aD
B3: BKO-4A8 variant VL N94L (antibody, human IgG4 S228P, lambda, V domains shown)
VH: B1 VH
VL: B1 VL with N96L, Y98N
notes: IgG4 S228P, lambda; parental heavy chain; also called 4A8 VL N94L
B4: BKO-4A8 variant VH I51H (antibody, human IgG4 S228P, lambda, V domains shown)
VH: B1 VH with I51H
VL: B1 VL with Y98N
notes: IgG4 S228P, lambda; parental light chain; also called 4A8 VH I51H
B5: BKO-4A8 variant VL R54Q (antibody, human IgG4 S228P, lambda, V domains shown)
VH: B1 VH
VL: B1 VL with R56Q, Y98N
notes: IgG4 S228P, lambda; parental heavy chain; also called 4A8 VL R54Q
B6: BKO-4A8 variant VL K53A (antibody, human IgG4 S228P, lambda, V domains shown)
VH: B1 VH
VL: B1 VL with K55A, Y98N
notes: IgG4 S228P, lambda; parental heavy chain; also called 4A8 VL K53A
B7: BKO-4A8 variant VL E50D (antibody, human IgG4 S228P, lambda, V domains shown)
VH: B1 VH
VL: B1 VL with E52D, Y98N
notes: IgG4 S228P, lambda; parental heavy chain; also called 4A8 VL E50D
B8: BKO-4A8 variant VH M34D (antibody, human IgG4 S228P, lambda, V domains shown)
VH: B1 VH with M34D
VL: B1 VL with Y98N
notes: IgG4 S228P, lambda; parental light chain; also called 4A8 VH M34D
B9: BKO-4A8 variant VH G54D (antibody, human IgG4 S228P, lambda, V domains shown)
VH: B1 VH with G55D
VL: B1 VL with Y98N
notes: IgG4 S228P, lambda; parental light chain; also called 4A8 VH G54D
B10: BKO-4A8 variant VL Y91A (antibody, human IgG4 S228P, lambda, V domains shown)
VH: B1 VH
VL: B1 VL with Y93A, Y98N
notes: IgG4 S228P, lambda; parental heavy chain; also called 4A8 VL Y91A
B11: BKO-4A8 variant VL N94A (antibody, human IgG4 S228P, lambda, V domains shown)
VH: B1 VH
VL: B1 VL with N96A, Y98N
notes: IgG4 S228P, lambda; parental heavy chain; also called 4A8 VL N94A
B12: BKO-4A8 variant VH R53Q (antibody, human IgG4 S228P, lambda, V domains shown)
VH: B1 VH with R54Q
VL: B1 VL with Y98N
notes: IgG4 S228P, lambda; parental light chain; also called 4A8 VH R53Q
B13: BKO-4A8 variant VL N95aL (antibody, human IgG4 S228P, lambda, V domains shown)
VH: B1 VH
VL: B1 VL with Y98L
notes: IgG4 S228P, lambda; parental heavy chain; also called 4A8 VL N95aL
B14: BKO-4A8 variant VL V97K (antibody, human IgG4 S228P, lambda, V domains shown)
VH: B1 VH
VL: B1 VL with Y98N, V101K
notes: IgG4 S228P, lambda; parental heavy chain; also called 4A8 VL V97K
B15: BKO-4A8 variant VL K53H (antibody, human IgG4 S228P, lambda, V domains shown)
VH: B1 VH
VL: B1 VL with K55H, Y98N
notes: IgG4 S228P, lambda; parental heavy chain; also called 4A8 VL K53H
B16: BKO-4A8 variant VL N94W (antibody, human IgG4 S228P, lambda, V domains shown)
VH: B1 VH
VL: B1 VL with N96W, Y98N
notes: IgG4 S228P, lambda; parental heavy chain; also called 4A8 VL N94W
B17: BKO-4A8 variant VH T33A (antibody, human IgG4 S228P, lambda, V domains shown)
VH: B1 VH with T33A
VL: B1 VL with Y98N
notes: IgG4 S228P, lambda; parental light chain; also called 4A8 VH T33A
B18: BKO-4A8 variant VL K53D (antibody, human IgG4 S228P, lambda, V domains shown)
VH: B1 VH
VL: B1 VL with K55D, Y98N
notes: IgG4 S228P, lambda; parental heavy chain; also called 4A8 VL K53D
B19: BKO-4A8 variant VH R53S (antibody, human IgG4 S228P, lambda, V domains shown)
VH: B1 VH with R54S
VL: B1 VL with Y98N
notes: IgG4 S228P, lambda; parental light chain; also called 4A8 VH R53S
B20: BKO-4A8 variant VH S32Y (antibody, human IgG4 S228P, lambda, V domains shown)
VH: B1 VH with S32Y
VL: B1 VL with Y98N
notes: IgG4 S228P, lambda; parental light chain; also called 4A8 VH S32Y
B21: BKO-4A8 variant VL N95aK (antibody, human IgG4 S228P, lambda, V domains shown)
VH: B1 VH
VL: B1 VL with Y98K
notes: IgG4 S228P, lambda; parental heavy chain; also called 4A8 VL N95aK
B22: BKO-4A8 variant VH S32L (antibody, human IgG4 S228P, lambda, V domains shown)
VH: B1 VH with S32L
VL: B1 VL with Y98N
notes: IgG4 S228P, lambda; parental light chain; also called 4A8 VH S32L
B23: BKO-4A8 variant VH S32Q (antibody, human IgG4 S228P, lambda, V domains shown)
VH: B1 VH with S32Q
VL: B1 VL with Y98N
notes: IgG4 S228P, lambda; parental light chain; also called 4A8 VH S32Q
B24: BKO-4A8 variant VL V97A (antibody, human IgG4 S228P, lambda, V domains shown)
VH: B1 VH
VL: B1 VL with Y98N, V101A
notes: IgG4 S228P, lambda; parental heavy chain; also called 4A8 VL V97A
B25: BKO-4A8 variant VH S32W (antibody, human IgG4 S228P, lambda, V domains shown)
VH: B1 VH with S32W
VL: B1 VL with Y98N
notes: IgG4 S228P, lambda; parental light chain; also called 4A8 VH S32W
B26: BKO-4A8 variant VH S32H (antibody, human IgG4 S228P, lambda, V domains shown)
VH: B1 VH with S32H
VL: B1 VL with Y98N
notes: IgG4 S228P, lambda; parental light chain; also called 4A8 VH S32H
B27: BKO-4A8 variant VH G52aD (antibody, human IgG4 S228P, lambda, V domains shown)
VH: B1 VH with G53D
VL: B1 VL with Y98N
notes: IgG4 S228P, lambda; parental light chain; also called 4A8 VH G52aD
B28: BKO-4A8 variant VH M34W (antibody, human IgG4 S228P, lambda, V domains shown)
VH: B1 VH with M34W
VL: B1 VL with Y98N
notes: IgG4 S228P, lambda; parental light chain; also called 4A8 VH M34W
B29: BKO-4A8 variant VH G101D (antibody, human IgG4 S228P, lambda, V domains shown)
VH: B1 VH with G101D
VL: B1 VL with Y98N
notes: IgG4 S228P, lambda; parental light chain; also called 4A8 VH G101D
B30: BKO-4A8 variant VL N95aH (antibody, human IgG4 S228P, lambda, V domains shown)
VH: B1 VH
VL: B1 VL with Y98H
notes: IgG4 S228P, lambda; parental heavy chain; also called 4A8 VL N95aH
B31: BKO-4A8 variant VL N52D (antibody, human IgG4 S228P, lambda, V domains shown)
VH: B1 VH
VL: B1 VL with N54D, Y98N
notes: IgG4 S228P, lambda; parental heavy chain; also called 4A8 VL N52D
B32: BKO-4A8 variant VH Y102K (antibody, human IgG4 S228P, lambda, V domains shown)
VH: B1 VH with Y102K
VL: B1 VL with Y98N
notes: IgG4 S228P, lambda; parental light chain; also called 4A8 VH Y102K
B33: BKO-4A8 variant VH Y102S (antibody, human IgG4 S228P, lambda, V domains shown)
VH: B1 VH with Y102S
VL: B1 VL with Y98N
notes: IgG4 S228P, lambda; parental light chain; also called 4A8 VH Y102S
B34: BKO-4A8 combinatorial variant 1b (antibody, human IgG4 S228P, lambda, V domains shown)
VH: B1 VH with M34Q, N57S
VL: B1 VL with N54S, N96S, Y98N
notes: IgG4 S228P, lambda
B35: BKO-4A8 combinatorial variant 3b (antibody, human IgG4 S228P, lambda, V domains shown)
VH: B1 VH with M34Q, A40P, N57S, R76K
VL: B1 VL with N54S, N96S, Y98N
notes: IgG4 S228P, lambda
B36: BKO-4A8 combinatorial variant 1c (antibody, human IgG4 S228P, lambda, V domains shown)
VH: B1 VH with M34Q, N57S
VL: B1 VL with D43G, N54S, N96S, Y98N
notes: IgG4 S228P, lambda
B37: BKO-4A8 combinatorial variant 2c (antibody, human IgG4 S228P, lambda, V domains shown)
VH: B1 VH with M34Q, A40P, N57S
VL: B1 VL with D43G, N54S, N96S, Y98N
notes: IgG4 S228P, lambda
B38: BKO-4A8 combinatorial variant 2b (antibody, human IgG4 S228P, lambda, V domains shown)
VH: B1 VH with M34Q, A40P, N57S
VL: B1 VL with N54S, N96S, Y98N
notes: IgG4 S228P, lambda

target: T1, human CXCR2; experiment: flow cytometry, CXCR2-transfected Expi293F cells
Method: (§1) Harvested cells were resuspended in FACS buffer (1×PBS+0.5% (w/v) bovine serum albumin (BSA)+2 mM EDTA pH 7.2). Approximately 2×10⁵ cells were added per well in a 96-well round-bottomed plate. Cells were pelleted by centrifugation at 400 g for 5 mins at 4° C. and supernatants discarded. 25 μL of each test antibody or control antibody was added to the cells and incubated for 30 minutes at 4° C. Cells were washed twice in 100 μL FACS buffer followed by centrifugation at 400 g for 5 mins at 4° C.
(§2) For detection, 50 μL of secondary antibody (Table 2) was added to relevant samples. Commercially available antibodies that bound to transfected CXCR family members were used as positive controls to ensure that the cells were expressing the receptors. Cells were washed twice in 200 μL of FACS buffer followed by centrifugation at 400 g for 5 mins at 4° C. Before sample acquisition, cells were resuspended in 100 μL of FACS buffer. Samples were acquired using the high throughput sampler on a FACSCanto™ II cytometer (Beckton-Dickinson).
Each variant heavy chain was co-expressed with the parental light chain and vice versa.

Row | Fold change in binding relative to BKO-4A8 | Binder
1 | 1.7 fold | B1
2 | 2.3 fold | B2
3 | 0.88 fold | B3
4 | 1.8 fold | B4
5 | 1.6 fold | B5
6 | 1.4 fold | B6
7 | 2 fold | B7
8 | 1.6 fold | B8
9 | 1 fold | B9
10 | 1.7 fold | B10
11 | 1 fold | B11
12 | 0.64 fold | B12
13 | 1.7 fold | B13
14 | 1 fold | B14
15 | 1.4 fold | B15
16 | 0.63 fold | B16
17 | 1.3 fold | B17

Row | Fold change in binding relative to BKO-4A8 | Binder
18 | 1.4 fold | B18
19 | 1 fold | B19
20 | 1.33 fold | B20
21 | 1 fold | B21
22 | 1.33 fold | B22
23 | 1.71 fold | B23
24 | 1.7 fold | B24
25 | 0.83 fold | B25
26 | 0.86 fold | B26
27 | 1.18 fold | B27
28 | 1.17 fold | B28
29 | 1 fold | B29
30 | 1.3 fold | B30
31 | 1.7 fold | B31
32 | 1.3 fold | B32
33 | 1.5 fold | B33

target: T1, human CXCR2; experiment: flow cytometry, CXCR2-transfected Expi293F cells; remark: another data set of the same source
Method: as §1, §2
Each heavy chain was co-expressed with each light chain to produce a sequence optimized antibody variant. Antibodies were purified and tested for CXCR2 binding activity as described in General Methods.

Row | EC50 | Fold Improvement over 4A8 WT | Binder
34 | 0.3 nM | 1.33 fold | B34
35 | 0.1 nM | 4 fold | B35
36 | 0.3 nM | 1.33 fold | B36
37 | 0.3 nM | 1.67 fold | B37
38 | 0.4 nM | 1.25 fold | B38
